Test: yeast display, Sf9 membrane polyspecificity reagent, FACS + sequencing; frameworks hold sequencing errors
Summary of the method: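 In a synthetic yeast display library (Saccharomyces cerevisiae BJ5465), nanobody expression was induced with galactose for 36–48 hours. FACS gates were set low and high (top ~1%) using anti-HA fluorescence for expression and streptavidin fluorescence for binding of the Sf9 membrane reagent. Each polyreactivity label is drawn from the gate of origin.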

| Sequence | polyreactivity (PSR sort gate) |
| --- | --- |
| QVHLVESGGGLVQAGGSLRLSCAASGLIFLAYAMGWYRQAPGKERELVAAISTSGSTYYADSVKGRFTISRDNAKNTVYLQMNSLKPEDTAVYYCAAYDRWSVTYYYWGQGTQVTVSS | high polyreactivity |
| QVQLVESGGGLVQAGGSLRLSCAASGSIFYFNAMGWYRQAPGKERELVAAINYSGGSTYYADSVKGRFTISRDNAKNTVYLQMNSLKPEDTAVYYCAAVTYFGWYPYRMEYWGQGTQVTVSS | high polyreactivity |
| QVQLVESGGGLVQAGGSLRLSCAASGFIFYYYAMGWYRQAPGKERELVARISRVGSTYYADSVKGRFTISRDNAKNTVYLQINSLKPEDTAVYYCAKVSIARIKTRYNYWGQATQVTVSS | high polyreactivity |
| QVQLVDSVGGLVQAGASLRLSCAASGSIFYYYAMGWYREAPGKERELVAAIRYRGGRTYYADSVKGRFTISRDNAKNTVYLQMNSLKPEDTAVYYCNADVIRRGGSRYSSGRDFDYWGQGTQVTVSS | high polyreactivity |
| QVQLVESGGGLLQAGGSLRLSCAASGSTFEYNAMGWYRQAPGKERELVASSTNYADSVKGRFTISRDNAKNTVYLQMNSLKPEDTAVYYCAREQGVNRNHDNWGQGTQVTVSS | low polyreactivity |
| QVQLVESGGGLVQAGGSLRLSCAASGSTFESNTMGWYSQAPGKERELVAAISYSGGRTYYADSVKGRFTISRDNAKNTVYLQMNSLKPEDTAVYYCAARWSVSYQYWGQGTQVTVSS | high polyreactivity |
| QVQLVESGGGLVQAGGSLRLSCAASGITFYFYTMGWYRPAPGKERELVAAITSSGGTTYYADSVKGRFTISRDNAKNTVYLQMNSLKPEDTAVYYCAARRWYQSRRGGFDYWGQGTQVTVSS | high polyreactivity |
| QVQLVESGGGFVQAGASLRLSCAASGRTCHGYAMGWYRQAPGKERDLVAAINASGGRTYYAESVKGRFTISRDNAKNTVYLLMNSLNPEDTAVYYCGVYSASFRYGLANDYWGQGTQVTVSS | high polyreactivity |
| QVQLVESGGGLVQAGGSLRLSCAASGRIFGKYAMGWYRQAPGKERELVAAISSSGGSTYYADSVKGRFTISRDNAKNTVYLQMNSLKPEDTAVYYCAADAAVSRVYPYDYWGQGTQVTVSS | high polyreactivity |
| QVQLVESGGGLVQAGGSLRLSCAASGRTFNYYARGWYRQAPGKERELVAAISKRGGSTYYADSVKGRFTISRDNAKNTVYLQMNSLKPEDTAVYYCNAAQSVELGYDYWGKGTQVTVSS | high polyreactivity |
| QVQLVESGGGLVQAGGSLRLSCAASGSTFDIYAMGWYRQAPGKERELVAAITVSGGSTYYADSVKGRFTISRDNAKNTVYLQMNSLKPEDTAVYYCNADWSGWQGWYNYWGQGTQVTVSS | low polyreactivity |
| QVQLVESGGGLVQAGGSLRLSCDASGYTFRRYAMGWYIQAPGKEREMVAAITNSGGSTYYADSVKGRFTISRDNAKNTVYLQMNSLKPEDTAVYYCVALRSAGAYDYWGQGTQVTVSS | low polyreactivity |
| QVQLVETGGGLVQAGGSLRLSCAASGSIFYRYAMGWYRQAPGKEREMVAAIRTRGGTYYADSVKGRFTISRDNAKNTVYLQMNSLKPEDTAVYYWNAVVPGCTAVDYDYWGQGTQVTVSS | high polyreactivity |
| QVQLVESGGGLVHAGGSLRLSCAASGRIFYKYAMAWYRQAPGKERELVAAISTRGGSTYYADSVKWRFTISRDNAKNTVYLQMNSLKPEDTAVYYCAALSAYGYDYWGQGTQVTVSS | high polyreactivity |
| QVQLVESGGGLVQAGGSLRLSCAASGLIFRYYAMGWYRQAPGKERELVAAIDGSDGITYYADSVKGRFTISRDNAKNTVYLQMNSLKPEDTEVYYCDAAFYYWGQGTQVTVSS | low polyreactivity |
| QVQLVESGGGLVQAGGSLRLSCAASGSLFIANAMGWYRQAPGKERELVAAISWSGGRTYYADSVKGRFTISRDNAKNTVYLQMNSLKPEDTAVYYCAAEWEFYYEYDYWGQGTQVTVSS | high polyreactivity |

| Sequence | polyreactivity (PSR sort gate) |
| --- | --- |
| QVQLVESGGGLVQAGGSLRLSCAASGSIFLYYAMGWYRQAPGKERELVASISSGGSTNYADSVKGRFTISRDNAKNTVYLQMNSLKPEDTAVYYCAARPYGGGRRSIYYYWGQGTQVTVSS | high polyreactivity |
| QVQLVESGGGLVQAGGSLRLSCAASGSIFAPDVMGWYRQAPGKERELVAAITESGGRTYYAASVKGRFTISRDNAKNTVYLQMNSLKPVDTAVYSCAARTFDRNRQLRRQWYDYWGLGTQVTVSS | high polyreactivity |
| QVQLVESGGGLVQAGGSLRLSCAASGFIFYPYAMGWYRQATGKETELVAAITWSGGTTTYADSEKGRFTISRDNAKNTVYLQMNSLKPEDTAVYSCAALWYYGRYPYDYWGQGTQVTVSS | high polyreactivity |
| QVQLVESGGGLVQAGGSLRLSCAASGITFYRNAMGWYRQAPGKERELVAAISRRGGITRYADSVKGRFTISRDNAKNTVYLQMNSLKPEDTAVYYCAKAIGSTALRRATEDYWGQGTQVTVSS | high polyreactivity |
| QVQLVESGGGLVQAGGSLRLSCAASGIIFVYYVMGWYRQAPGKERELVASIDGSGGSTNYADSVKGRFTISRDNAKNTVYLQMNSLKPEDTAVYYCNADNILYWSTLDYWGQGTQVTVSS | low polyreactivity |
| QVQLVESGAGLVQAGGSLRLSCAASGIFVRYGMGWYRQAPGKERELVAAISYGGGSTYYADSVKGRFTISRDNAKITVYLQMNSLKPEDTAVYYCAASYANRYKYDEYDYWGQGTQVTVSS | high polyreactivity |
| QFQLVESGGGLVQAGGSLRLSCAASGFTFDNYVMGWYRQAPGKERELVAAISKSGTSTYYADSVKGRFTISRDNAKNTVYLQMNSLKPEDTAVYYCAAALPGYGDYYYWGQGTQVTVSS | high polyreactivity |
| QVQLVESGGGLVQAGGSLRLSCAASGSTFKRYAMGWYRQAPAKERELVASISSGGSTNYADSVKGRFTISRDNAKNTVYLQMNSLKPEDTAVYYCNAVYYCYKGDYWGQGTQVTVSS | high polyreactivity |
| QVQLVESGGGLVQAGGSLRLSCAASGRTFLNYPMGWYRPAPGKERELVASISSSGARTYYADSVKGRFTISRDNAKNTVYLQMNSLKPEDTAVYFCAVTAGRGGYPQGGVTRGYWGQGTQVTVSS | high polyreactivity |
| QVQLVESGGGLVQAGGSLRLSCAASGYIFGYYVMGWYRQAPGKERELVAAITGRGGSTYYADSVKGRFTISRDNAKNTVSLQMNSLKPEDTAVYYCAADATTYPYDPWHLYEIWEYYYWGQGTQVTVSS | low polyreactivity |
| QVQLVESGGGLVQAGGSLRLSCAASGRIFYDNTMGWYRQAPGKERELVAAISVSGGRTYYADSVKGRFTISRDNAKNTVYLQLNSLKPEDTAVYYCAADRGGEYWGQGTQVTVSS | high polyreactivity |
| QVQLVESGGGLVQAGGSLRLSCAASGSTFSRYAMGWYRQAPGKERELVAAISSNGGRTYYADSVKGRFTISRDNAKNTVYLQMNSLKPEDTAVYYCAAVNYLTMDYWGQGTQVTVSS | high polyreactivity |
| QVQLEESGGGLVQAGGSLRLSCAASGIIIRYYAMGWYRQAPRKERELVDSITARSGSTYYADSVKGRFSISRDYAKNTVYFQMNSLKPEDTAVYYCAKSGKPARYYYWGQGTQVTVSS | high polyreactivity |
| QVQLVESGGGLVQAGGRLRLSCAASGFIFKQYVMGWYRQAPGKERELVAAISRSGGSTYYADSVKGRFTISRDNAKNTVYLQMNSLKPEDNAVYYCNADNYYPDYDSWGQGTQVTVSS | high polyreactivity |
| QVQLVESGGGLVQAGGSLRLSCAASGITFYRYAMGWYRQAPGKERELVATITSGGSTYYADSVKGRFTISRDNAKNTVYLQMNSLKPEDTAVYYCAAESVWTWYYTTAGMDYWGQGTQVTVSS | high polyreactivity |
| QVQLVESGGGLVQAGGSLRLSCAASGFTFPYNDMGWYIQARGKEREFVAAISRSGTRTYYADSVKGRFTISRDNAKHTVYLQMNSLKPEDTAVYYCNARAAGYARLGPGFDYWGQGTQVTVSS | high polyreactivity |
